This note sets out measurements from paper PMC6922461.

For experiment [1], the target named is trivalent Strep-Tactin-SpyCatcher. Kind of experiment: SPR.
The target of experiment [2] is monovalent Strep-Tactin-SpyCatcherΔ. Kind of experiment: SPR.
monovalent Strep-Tactin-SpyCatcherΔ, sequence (P22629 other isoform, or with tags, fused parts or gaps mutant, chain 1 of 2): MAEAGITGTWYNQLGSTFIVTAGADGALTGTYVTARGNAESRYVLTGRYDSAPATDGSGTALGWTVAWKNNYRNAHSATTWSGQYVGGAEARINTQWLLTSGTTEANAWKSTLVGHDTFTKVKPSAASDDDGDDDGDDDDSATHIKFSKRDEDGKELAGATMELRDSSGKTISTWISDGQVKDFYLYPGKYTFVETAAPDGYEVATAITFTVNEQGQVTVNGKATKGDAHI
monovalent Strep-Tactin-SpyCatcherΔ, sequence (P22629 other isoform, or with tags, fused parts or gaps mutant, chain 2 of 2): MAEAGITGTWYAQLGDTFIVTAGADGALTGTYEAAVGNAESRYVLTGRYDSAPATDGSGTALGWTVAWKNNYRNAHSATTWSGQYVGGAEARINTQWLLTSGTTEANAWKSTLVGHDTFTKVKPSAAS

trivalent Strep-Tactin-SpyCatcher, sequence (P22629 other isoform, or with tags, fused parts or gaps, chain 1 of 2): as the sequence (P22629 other isoform, or with tags, fused parts or gaps mutant, chain 2 of 2) above, with A12N, D16S, E33V, A34T, V36R counted along it
trivalent Strep-Tactin-SpyCatcher, sequence (P22629 other isoform, or with tags, fused parts or gaps, chain 2 of 2): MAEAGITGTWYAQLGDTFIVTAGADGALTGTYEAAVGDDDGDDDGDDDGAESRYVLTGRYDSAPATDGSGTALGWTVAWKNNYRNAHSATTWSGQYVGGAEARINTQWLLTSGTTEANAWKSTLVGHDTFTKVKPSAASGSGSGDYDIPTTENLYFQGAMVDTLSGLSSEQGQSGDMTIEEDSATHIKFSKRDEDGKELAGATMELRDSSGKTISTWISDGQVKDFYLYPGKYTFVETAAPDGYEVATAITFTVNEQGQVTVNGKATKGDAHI

In general, Kd refers to the constant that tells how readily two partners part at equilibrium. The substance Twin-Strep-tag–mTFP fusion protein displayed a Kd in experiment [1] of 6.8 µM.
In the case of Strep-tag II–mTFP, the equilibrium dissociation constant (Kd) in experiment [2] stood at 43 µM.
